B1: COVA2-15 IgG (antibody, V domains shown)
VH: QVQLLESGGGLVQPGGSLRLSCAASGFTFSSYAMSWVRQAPGKGLEWASAISGSGGSTYYADSVEGRFTISRDNSKNTLYLQMNSLRAEDTAVYYCAKDTGYCGDDCYIKLIRGGPDYWGQGTLVTVSS
VL: DIVMTQSPLSLPVTLGQPASISCRSSQSLVYSDGNTFLNWFQQRPGQSPRRLIYQVSNRDSGVPDRFSGSGSGTDFTLKISRVEAEDVGVYYCMQGTHWPRTFGQGTKLEIK
B2: COVA2-15 monomeric IgA2 (antibody, V domains shown)
VH: B1 VH
VL: B1 VL
B3: COVA2-15 monomeric IgA1 (antibody, V domains shown)
VH: B1 VH
VL: B1 VL
B4: COVA2-15 secretory IgA2 (antibody, V domains shown)
VH: B1 VH
VL: B1 VL
B5: COVA2-15 secretory IgA1 (antibody, V domains shown)
VH: B1 VH
VL: B1 VL
B6: COVA2-15 monomeric IgA2 (antibody, V domains shown)
VH: B1 VH
VL: B1 VL
B7: COVA2-15 monomeric IgA1 (antibody, V domains shown)
VH: B1 VH
VL: B1 VL
B8: COVA2-15 secretory IgA2 (antibody, V domains shown)
VH: B1 VH
VL: B1 VL
B9: COVA2-15 secretory IgA1 (antibody, V domains shown)
VH: B1 VH
VL: B1 VL
B10: COVA2-15 IgG (antibody, V domains shown)
VH: B1 VH
VL: B1 VL

The binders below were run against T1, Wuhan-Hu-1 S protein on plant-produced virus-like particles (Severe acute respiratory syndrome …, UniProt P0DTC2) (assay: ELISA). Details: both partners purified.
T1 construct: also called SARS-CoV-2 VLPs (Wuhan variant)

Binder	EC50 [nM]
B1	0.032
B2	0.149
B3	0.054
B4	0.017
B5	0.01

Each binder was assayed against T2, Wuhan-Hu-1 S protein on plant-produced virus-like particles (Severe acute respiratory syndrome …, UniProt P0DTC2) (assay: ELISA). Details: both partners purified.
T2 construct: also called Spike protein of the Wuhan variant on VLPs; Wuhan variant

Binder	EC50 [nM]
B6	~0.05
B7	~0.05
B8	~0.01
B9	~0.01
B10	~0.05

Source: paper PMC10928148 (Molecular Therapy, 2024)
